B1: COV2-2165 (antibody, V domains shown)
VH: EVQLVESGGGLVQPGGSLRLSCAASGLTVRSNYMTWVRQTPGKGLEWVSVIYSGGSTFYADSVKGRFTISRDNSKNTVYLQMNSLRAEDTAVYYCARDLVTYGLDVWGQGTTVTVSS
VL: DIQLTQSPSFLSASVGDRVTITCRASQGISNYLAWYQQKPGTAPNLLIYAASTLQSGVPSRFSGSGSGTEFTLTISSLQPEDFATYYCQLLNSHPLTFGQGTRLEIK
B2: COV2-2391 (antibody, V domains shown)
VH: QVQLVQSGAEVKKPGASVKVSCKASGYTFGSFDINWVRQATGQGLEWMGRMNSNSGNTAYAQKFQGRVTMTRDTSTNTAYMELSSLRSEDTAMYYCARMRSGWPTHGRPDDFWGRGTLVTVSS
VL: QSVLTQAPSASGTPGQRVTISCSGSNSNIGSYTINWYQQLPGTAPKLLIYGNDQRTSGVPDRFSGSKFGTSASLAISGLQSEDENNYYCAVWDDSLNGLVFGGGTKLTVL
B3: COV2-2096 (antibody, V domains shown)
VH: B2 VH
VL: B2 VL
B4: COV2-2952 (antibody, V domains shown)
VH: B1 VH
VL: B1 VL

Legend:
Settings in all cases: remark: other sources report otherwise
[1] = biological target: SARS-CoV-2 Spike trimer (Table A) (SARS-CoV-2), P0DTC2; experiment: ELISA, purified IgG
[2] = biological target: T1, SARS-CoV-2 prefusion-stabilized trimeric spike ectodomain (S2Pecto) (SARS-CoV-2), P0DTC2; experiment: ELISA on coated antigen
[3] = biological target: T1, SARS-CoV-2 prefusion-stabilized …; experiment: hACE2 blocking ELISA on coated S2Pecto; competitor hACE2

| Binder | ELISA OD 450 nm [1] [OD 450 nm] | EC50 [2] [ng/mL] | IC50 [3] [µg/mL] |
| --- | --- | --- | --- |
| B1 | 4.2 | 1.4 | 0.062 |
| B2 | 3.57 | – | – |
| B3 | 4.3 | 1 | 0.067 |
| B4 | 3.54 | – | – |

Source: patent publication US20210300999A1
